B1: GC5B487 (antibody, V domains shown)
VH: EVQLVQSGAEVKKPGESLKISCKGSGYSFTSYVIGWVRQMPGKGLEWMGIIYPGESDTRYSPSFQGQVTISADKSISTAYLQWSSLKASDTAMYYCARVYSFGGRHKALFDYWGQGTLVTVSS
VL: EIVLTQSPATLSLSPGERATLSCRASQSVSSYLAWYQQKPGQAPRLLIYDASNRATGIPARFSGSGSGTDFTLTISSLEPEDFAVYYCQQRSNWPLTFGQGTKVEIK
notes: GC5B164 PTM variant; also called GC5H262
B2: GC5B504 (antibody, V domains shown)
VH: EVQLVQSGAEVKKPGESLKISCKGSGYSFTSYWIGWVRQMPGKGLEWMGIIYPGESDTRYSPSFQGQVTISADKSISTAYLQWSSLKASDTAMYYCARVYSFGGRHKALFDYWGQGTLVTVSS
VL: EIVLTQSPATLSLSPGERATLSCRASQSVSSYLAWYQQKPGQAPRLLIYDASNRATGIPARFSGSGSGTDFTLTISSLEPEDFAVYYCQQRSNWPLTFGQGTKVEIK
notes: GC5B164 PTM variant; also called GC5H245
B3: GC5B498 (antibody, V domains shown)
VH: EVQLVQSGAEVKKPGESLKISCKGSGYSFTSYFIGWVRQMPGKGLEWMGIIYPGDSDTRYSPSFQGQVTISADKSISTAYLQWSSLKASDTAMYYCARVYSFGGRHKALFDYWGQGTLVTVSS
VL: EIVLTQSPATLSLSPGERATLSCRASQSVSSYLAWYQQKPGQAPRLLIYDASNRATGIPARFSGSGSGTDFTLTISSLEPEDFAVYYCQQRSNWPLTFGQGTKVEIK
notes: GC5B164 PTM variant; also called GC5H251
B4: GC5B488 (antibody, V domains shown)
VH: EVQLVQSGAEVKKPGESLKISCKGSGYSFTSYFIGWVRQMPGKGLEWMGIIYPGESDTRYSPSFQGQVTISADKSISTAYLQWSSLKASDTAMYYCARVYSFGGRHKALFDYWGQGTLVTVSS
VL: EIVLTQSPATLSLSPGERATLSCRASQSVSSYLAWYQQKPGQAPRLLIYDASNRATGIPARFSGSGSGTDFTLTISSLEPEDFAVYYCQQRSNWPLTFGQGTKVEIK
notes: GC5B164 PTM variant; also called GC5H261
B5: GC5B495 (antibody, V domains shown)
VH: EVQLVQSGAEVKKPGESLKISCKGSGYSFTSYAIGWVRQMPGKGLEWMGIIYPGYSDTRYSPSFQGQVTISADKSISTAYLQWSSLKASDTAMYYCARVYSFGGRHKALFDYWGQGTLVTVSS
VL: EIVLTQSPATLSLSPGERATLSCRASQSVSSYLAWYQQKPGQAPRLLIYDASNRATGIPARFSGSGSGTDFTLTISSLEPEDFAVYYCQQRSNWPLTFGQGTKVEIK
notes: GC5B164 PTM variant; also called GC5H254
B6: GC5B496 (antibody, V domains shown)
VH: EVQLVQSGAEVKKPGESLKISCKGSGYSFTSYYIGWVRQMPGKGLEWMGIIYPGDSDTRYSPSFQGQVTISADKSISTAYLQWSSLKASDTAMYYCARVYSFGGRHKALFDYWGQGTLVTVSS
VL: EIVLTQSPATLSLSPGERATLSCRASQSVSSYLAWYQQKPGQAPRLLIYDASNRATGIPARFSGSGSGTDFTLTISSLEPEDFAVYYCQQRSNWPLTFGQGTKVEIK
notes: GC5B164 PTM variant; also called GC5H253
B7: GC5B503 (antibody, V domains shown)
VH: EVQLVQSGAEVKKPGESLKISCKGSGYSFTSYWIGWVRQMPGKGLEWMGIIYPGKSDTRYSPSFQGQVTISADKSISTAYLQWSSLKASDTAMYYCARVYSFGGRHKALFDYWGQGTLVTVSS
VL: EIVLTQSPATLSLSPGERATLSCRASQSVSSYLAWYQQKPGQAPRLLIYDASNRATGIPARFSGSGSGTDFTLTISSLEPEDFAVYYCQQRSNWPLTFGQGTKVEIK
notes: GC5B164 PTM variant; also called GC5H246
B8: GC5B497 (antibody, V domains shown)
VH: EVQLVQSGAEVKKPGESLKISCKGSGYSFTSYVIGWVRQMPGKGLEWMGIIYPGDSDTRYSPSFQGQVTISADKSISTAYLQWSSLKASDTAMYYCARVYSFGGRHKALFDYWGQGTLVTVSS
VL: EIVLTQSPATLSLSPGERATLSCRASQSVSSYLAWYQQKPGQAPRLLIYDASNRATGIPARFSGSGSGTDFTLTISSLEPEDFAVYYCQQRSNWPLTFGQGTKVEIK
notes: GC5B164 PTM variant; also called GC5H252
B9: GC5B493 (antibody, V domains shown)
VH: EVQLVQSGAEVKKPGESLKISCKGSGYSFTSYFIGWVRQMPGKGLEWMGIIYPGYSDTRYSPSFQGQVTISADKSISTAYLQWSSLKASDTAMYYCARVYSFGGRHKALFDYWGQGTLVTVSS
VL: EIVLTQSPATLSLSPGERATLSCRASQSVSSYLAWYQQKPGQAPRLLIYDASNRATGIPARFSGSGSGTDFTLTISSLEPEDFAVYYCQQRSNWPLTFGQGTKVEIK
notes: GC5B164 PTM variant; also called GC5H256
B10: GC5B492 (antibody, V domains shown)
VH: EVQLVQSGAEVKKPGESLKISCKGSGYSFTSYVIGWVRQMPGKGLEWMGIIYPGYSDTRYSPSFQGQVTISADKSISTAYLQWSSLKASDTAMYYCARVYSFGGRHKALFDYWGQGTLVTVSS
VL: EIVLTQSPATLSLSPGERATLSCRASQSVSSYLAWYQQKPGQAPRLLIYDASNRATGIPARFSGSGSGTDFTLTISSLEPEDFAVYYCQQRSNWPLTFGQGTKVEIK
notes: GC5B164 PTM variant; also called GC5H257
B11: GC5B490 (antibody, V domains shown)
VH: EVQLVQSGAEVKKPGESLKISCKGSGYSFTSYAIGWVRQMPGKGLEWMGIIYPGESDTRYSPSFQGQVTISADKSISTAYLQWSSLKASDTAMYYCARVYSFGGRHKALFDYWGQGTLVTVSS
VL: EIVLTQSPATLSLSPGERATLSCRASQSVSSYLAWYQQKPGQAPRLLIYDASNRATGIPARFSGSGSGTDFTLTISSLEPEDFAVYYCQQRSNWPLTFGQGTKVEIK
notes: GC5B164 PTM variant; also called GC5H259
B12: GC5B501 (antibody, V domains shown)
VH: EVQLVQSGAEVKKPGESLKISCKGSGYSFTSYWIGWVRQMPGKGLEWMGIIYPGASDTRYSPSFQGQVTISADKSISTAYLQWSSLKASDTAMYYCARVYSFGGRHKALFDYWGQGTLVTVSS
VL: EIVLTQSPATLSLSPGERATLSCRASQSVSSYLAWYQQKPGQAPRLLIYDASNRATGIPARFSGSGSGTDFTLTISSLEPEDFAVYYCQQRSNWPLTFGQGTKVEIK
notes: GC5B164 PTM variant; also called GC5H248
B13: GC5B491 (antibody, V domains shown)
VH: EVQLVQSGAEVKKPGESLKISCKGSGYSFTSYYIGWVRQMPGKGLEWMGIIYPGYSDTRYSPSFQGQVTISADKSISTAYLQWSSLKASDTAMYYCARVYSFGGRHKALFDYWGQGTLVTVSS
VL: EIVLTQSPATLSLSPGERATLSCRASQSVSSYLAWYQQKPGQAPRLLIYDASNRATGIPARFSGSGSGTDFTLTISSLEPEDFAVYYCQQRSNWPLTFGQGTKVEIK
notes: GC5B164 PTM variant; also called GC5H258
B14: GC5B494 (antibody, V domains shown)
VH: EVQLVQSGAEVKKPGESLKISCKGSGYSFTSYGIGWVRQMPGKGLEWMGIIYPGYSDTRYSPSFQGQVTISADKSISTAYLQWSSLKASDTAMYYCARVYSFGGRHKALFDYWGQGTLVTVSS
VL: EIVLTQSPATLSLSPGERATLSCRASQSVSSYLAWYQQKPGQAPRLLIYDASNRATGIPARFSGSGSGTDFTLTISSLEPEDFAVYYCQQRSNWPLTFGQGTKVEIK
notes: GC5B164 PTM variant; also called GC5H255
B15: GC5B502 (antibody, V domains shown)
VH: EVQLVQSGAEVKKPGESLKISCKGSGYSFTSYWIGWVRQMPGKGLEWMGIIYPGSSDTRYSPSFQGQVTISADKSISTAYLQWSSLKASDTAMYYCARVYSFGGRHKALFDYWGQGTLVTVSS
VL: EIVLTQSPATLSLSPGERATLSCRASQSVSSYLAWYQQKPGQAPRLLIYDASNRATGIPARFSGSGSGTDFTLTISSLEPEDFAVYYCQQRSNWPLTFGQGTKVEIK
notes: GC5B164 PTM variant; also called GC5H247

In this experiment the target is T1, human GPRC5D (human, UniProt Q9NZD1 1-345).
T1 construct: on transfected HEK293/RBL cells or endogenous on myeloma cells (H929, MM1R, OPM2, LP1, JIM3, patient plasma cells); also called G protein-coupled receptor class C group 5 member D; hGPRC5D
T1 sequence (Q9NZD1 whole entry): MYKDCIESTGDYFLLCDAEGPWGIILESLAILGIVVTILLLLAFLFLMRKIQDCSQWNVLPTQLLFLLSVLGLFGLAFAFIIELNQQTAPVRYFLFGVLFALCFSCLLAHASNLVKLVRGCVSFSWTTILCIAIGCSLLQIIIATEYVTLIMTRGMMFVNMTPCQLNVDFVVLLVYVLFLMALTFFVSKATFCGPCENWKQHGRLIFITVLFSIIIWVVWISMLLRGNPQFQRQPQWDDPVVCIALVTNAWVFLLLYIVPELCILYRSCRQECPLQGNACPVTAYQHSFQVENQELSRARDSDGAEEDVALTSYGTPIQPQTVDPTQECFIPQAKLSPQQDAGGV
The experiment in a line: FACS, human GPRC5D cells. Background: A flow cytometer gives signals particle by particle.
B1 returned an MFI of 1000 to 10000 mfi.

In turn, B2 had an MFI greater than 10000 mfi.

In turn, B3 came in with an MFI greater than 10000 mfi.

On to B4, for which the MFI was greater than 10000 mfi.

In turn, B5 gave an MFI of 1000 to 10000 mfi.

The molecule B6 had an MFI greater than 10000 mfi.

B7 gave an MFI greater than 10000 mfi.

For the molecule B8, the MFI was greater than 10000 mfi.

B9 showed an MFI greater than 10000 mfi.

B10 displayed an MFI greater than 10000 mfi.

Consider B11, for which the MFI lay within 1000 to 10000 mfi.

In turn, B12 yielded an MFI greater than 10000 mfi.

Regarding B13, the MFI is greater than 10000 mfi.

The molecule B14 displayed an MFI of 1000 to 10000 mfi.

Regarding B15, the MFI is greater than 10000 mfi.

(Values after patent publication US20180037651A1 (Janssen / Centocor, published 2018).)
